Reference: IntAct's records for PubMed 21423148

B1: Calcium-binding protein 39 (Homo sapiens), Q9Y376 (parent)
chain: MPFPFGKSHKSPADIVKNLKESMAVLEKQDISDKKAEKATEEVSKNLVAMKEILYGTNEKEPQTEAVAQLAQELYNSGLLSTLVADLQLIDFEGKKDVAQIFNNILRRQIGTRTPTVEYICTQQNILFMLLKGYESPEIALNCGIMLRECIRHEPLAKIILWSEQFYDFFRYVEMSTFDIASDAFATFKDLLTRHKLLSAEFLEQHYDRFFSEYEKLLHSENYVTKRQSLKLLGELLLDRHNFTIMTKYISKPENLKLMMNLLRDKSRNIQFEAFHVFKVFVANPNKTQPILDILLKNQAKLIEFLSKFQNDRTEDEQFNDEKTYLVKQIRDLKRPAQQEA
partner: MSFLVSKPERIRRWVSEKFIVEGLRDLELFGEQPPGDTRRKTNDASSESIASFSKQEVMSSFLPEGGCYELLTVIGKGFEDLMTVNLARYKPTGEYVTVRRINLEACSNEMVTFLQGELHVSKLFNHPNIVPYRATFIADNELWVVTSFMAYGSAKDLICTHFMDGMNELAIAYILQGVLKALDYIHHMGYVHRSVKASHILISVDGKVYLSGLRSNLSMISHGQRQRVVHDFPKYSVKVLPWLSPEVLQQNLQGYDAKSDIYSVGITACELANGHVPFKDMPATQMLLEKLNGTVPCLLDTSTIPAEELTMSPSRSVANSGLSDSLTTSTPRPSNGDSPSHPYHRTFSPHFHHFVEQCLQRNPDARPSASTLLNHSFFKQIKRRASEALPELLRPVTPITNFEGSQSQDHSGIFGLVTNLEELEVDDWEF
B2: Calcium-binding protein 39 (Homo sapiens), Q9Y376 (parent)
chain: B1 chain

How the values were obtained:
[1] = variants of: B1; conditions: with straa_human STRADA
[2] = variants of: B2; conditions: with stk39_human STK39, Q9UEW8
[3] = variants of: B2; conditions: with oxsr1_human OXSR1, O95747
oxsr1_human OXSR1, O95747, sequence (O95747 whole entry, looked up): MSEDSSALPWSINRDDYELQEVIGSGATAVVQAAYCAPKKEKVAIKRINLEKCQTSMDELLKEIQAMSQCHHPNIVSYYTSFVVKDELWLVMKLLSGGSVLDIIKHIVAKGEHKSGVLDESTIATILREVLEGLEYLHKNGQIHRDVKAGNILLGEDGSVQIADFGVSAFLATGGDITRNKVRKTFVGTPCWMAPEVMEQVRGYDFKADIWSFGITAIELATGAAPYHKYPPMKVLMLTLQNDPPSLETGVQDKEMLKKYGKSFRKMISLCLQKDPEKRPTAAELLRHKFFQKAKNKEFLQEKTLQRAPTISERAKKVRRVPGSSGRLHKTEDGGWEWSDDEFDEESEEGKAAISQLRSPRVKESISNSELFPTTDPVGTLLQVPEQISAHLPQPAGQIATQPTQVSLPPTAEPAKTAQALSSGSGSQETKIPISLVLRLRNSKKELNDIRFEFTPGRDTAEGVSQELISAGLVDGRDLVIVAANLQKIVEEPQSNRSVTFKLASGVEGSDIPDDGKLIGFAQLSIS

[4] = variants of: B2; conditions: with stk26_human STK26, Q9P289
stk26_human STK26, Q9P289, sequence (Q9P289 whole entry, looked up): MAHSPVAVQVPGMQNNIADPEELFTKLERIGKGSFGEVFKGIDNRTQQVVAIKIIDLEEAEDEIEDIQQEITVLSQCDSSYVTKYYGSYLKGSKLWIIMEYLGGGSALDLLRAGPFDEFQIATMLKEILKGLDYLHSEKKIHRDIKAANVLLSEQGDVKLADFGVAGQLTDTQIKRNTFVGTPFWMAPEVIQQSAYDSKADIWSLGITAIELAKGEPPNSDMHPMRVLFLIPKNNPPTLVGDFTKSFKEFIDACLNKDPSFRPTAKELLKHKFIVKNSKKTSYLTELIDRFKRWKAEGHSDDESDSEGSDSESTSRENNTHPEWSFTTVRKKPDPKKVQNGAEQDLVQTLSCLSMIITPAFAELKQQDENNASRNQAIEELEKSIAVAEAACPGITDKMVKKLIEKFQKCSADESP

[5] = variants of: B2; conditions: with stk26_human STK26, Q9P289; remark: listed apart in the source
[6] = variants of: B2; conditions: with stk39_human STK39, Q9UEW8; remark: listed apart in the source
[7] = variants of: B2; conditions: with oxsr1_human OXSR1, O95747; remark: listed apart in the source
[8] = variants of: B2; conditions: with stk25_human STK25, O00506
stk25_human STK25, O00506, sequence (O00506 whole entry, looked up): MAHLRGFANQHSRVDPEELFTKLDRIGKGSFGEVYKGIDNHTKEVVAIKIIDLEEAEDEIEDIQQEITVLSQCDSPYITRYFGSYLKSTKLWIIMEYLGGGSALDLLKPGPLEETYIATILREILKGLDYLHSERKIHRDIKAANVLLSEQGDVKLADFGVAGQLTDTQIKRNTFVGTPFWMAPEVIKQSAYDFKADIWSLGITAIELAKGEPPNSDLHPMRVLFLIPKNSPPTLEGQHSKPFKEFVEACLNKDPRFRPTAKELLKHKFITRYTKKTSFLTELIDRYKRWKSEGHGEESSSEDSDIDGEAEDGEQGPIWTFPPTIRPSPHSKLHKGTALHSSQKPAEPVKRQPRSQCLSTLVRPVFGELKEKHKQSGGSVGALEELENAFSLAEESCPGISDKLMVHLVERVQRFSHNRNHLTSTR

[9] = variants of: B2; conditions: with stk26_human STK26, Q9P289; remark: listed apart in the source
[10] = variants of: B2; conditions: with stk39_human STK39, Q9UEW8; remark: listed apart in the source
[11] = variants of: B2; conditions: with oxsr1_human OXSR1, O95747; remark: listed apart in the source

Row | Variant | effect of a mutation on the interaction [1] | effect of a mutation on the interaction [2] | effect of a mutation on the interaction [3] | effect of a mutation on the interaction [4] | effect of a mutation on the interaction [5] | effect of a mutation on the interaction [6] | effect of a mutation on the interaction [7] | effect of a mutation on the interaction [8] | effect of a mutation on the interaction [9] | effect of a mutation on the interaction [10] | effect of a mutation on the interaction [11]
1 | M260A | disrupting interaction | – | – | – | – | – | – | – | – | – | –
2 | M260A | – | disrupting interaction | disrupting interaction | disrupting interaction | – | – | – | disrupting interaction | decreasing interaction | decreasing interaction | decreasing interaction

Now from value to variant:

Row | effect of a mutation on the interaction [1] | effect of a mutation on the interaction [2] | effect of a mutation on the interaction [3] | effect of a mutation on the interaction [4] | effect of a mutation on the interaction [5] | effect of a mutation on the interaction [6] | effect of a mutation on the interaction [7] | effect of a mutation on the interaction [8] | effect of a mutation on the interaction [9] | effect of a mutation on the interaction [10] | effect of a mutation on the interaction [11] | Variant
3 | disrupting interaction | – | – | – | – | – | – | – | – | – | – | R227A
4 | – | disrupting interaction | disrupting interaction | disrupting interaction | decreasing interaction | decreasing interaction | decreasing interaction | disrupting interaction | – | – | – | R227A
